Laboratory results: PMC4600729

What was measured:
[1] = molecular target: T1, taxol-stabilized microtubules (polymer of alpha/beta-tubulin), immobilized; test: single-molecule TIRF microscopy; spiking experiment, crowded conditions: pM GFP-labelled motor mixed with 15-25 nM unlabelled motor; binding durations at plus ends of taxol-stabilized microtubules
[2] = molecular target: dynamic microtubules growing from surface-immobilized GMPCPP seeds (polymer of alpha/beta-tubulin); test: TIRF microscopy; GFP-labelled motors (20-30 nM, or 50 pM for single molecules) on microtubules growing from immobilized GMPCPP seeds in 10 or 20 μM unlabelled tubulin, 1 mM ATP
[3] = molecular target: T1, taxol-stabilized microtubules (polymer …); test: single-molecule TIRF microscopy; GFP-labelled motor (25 pM) in 1 mM ATP on immobilized taxol-stabilized microtubules; pause lifetimes at plus ends, exponential fit; BRB80 pH 6.8

T1 sequence (P68363 whole entry, chain 1 of 2): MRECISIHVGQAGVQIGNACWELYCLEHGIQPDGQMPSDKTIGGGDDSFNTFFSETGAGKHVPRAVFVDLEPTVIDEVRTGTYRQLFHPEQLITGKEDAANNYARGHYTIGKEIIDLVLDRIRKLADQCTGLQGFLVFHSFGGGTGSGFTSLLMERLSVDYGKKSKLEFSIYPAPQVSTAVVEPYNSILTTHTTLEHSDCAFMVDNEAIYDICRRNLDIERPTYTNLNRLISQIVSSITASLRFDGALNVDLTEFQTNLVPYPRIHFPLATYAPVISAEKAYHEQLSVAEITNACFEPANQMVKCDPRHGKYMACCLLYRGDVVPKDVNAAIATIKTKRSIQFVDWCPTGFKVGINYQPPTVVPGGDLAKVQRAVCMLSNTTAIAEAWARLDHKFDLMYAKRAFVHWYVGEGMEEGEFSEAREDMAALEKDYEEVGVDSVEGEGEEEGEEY
T1 sequence (A8K068 whole entry, chain 2 of 2, further chain): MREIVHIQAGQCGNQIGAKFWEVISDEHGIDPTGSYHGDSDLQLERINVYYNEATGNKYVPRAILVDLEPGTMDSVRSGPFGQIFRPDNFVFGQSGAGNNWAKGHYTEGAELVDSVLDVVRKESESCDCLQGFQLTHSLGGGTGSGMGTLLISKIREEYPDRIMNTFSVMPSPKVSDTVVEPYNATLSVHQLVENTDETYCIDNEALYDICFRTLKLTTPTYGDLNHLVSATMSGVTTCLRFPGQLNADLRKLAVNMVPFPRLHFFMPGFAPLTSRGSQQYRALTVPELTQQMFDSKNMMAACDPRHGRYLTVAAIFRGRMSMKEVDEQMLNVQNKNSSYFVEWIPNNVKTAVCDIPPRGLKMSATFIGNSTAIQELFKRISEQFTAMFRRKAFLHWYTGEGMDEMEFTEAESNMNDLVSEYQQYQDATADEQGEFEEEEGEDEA
dynamic microtubules growing from surface-immobilized GMPCPP seeds (polymer of alpha/beta-tubulin), sequence (chain, as listed by the source, chain 1 of 2): as the sequence (P68363 whole entry, chain 1 of 2) above
dynamic microtubules growing from surface-immobilized GMPCPP seeds (polymer of alpha/beta-tubulin), sequence (chain, as listed by the source, chain 2 of 2): as the sequence (A8K068 whole entry, chain 2 of 2, further chain) above

B1: Kin5_14GFP (dimeric kinesin-5 as Kin5_18 but with the neck linker shortened to 14 residues, GFP-tagged) (protein)
chain: MSSQNSFMASKKEDKGKNIQVVVRCRPFNQLERKASSHSVLECDSQRKEVYVRTGEVNDKLGKKTYTFDMVFGPAAKQIEVYRSVVCPILDEVIMGYNCTIFAYGQTGTGKTFTMEGERSSDEEFTWEQDPLAGIIPRTLHQIFEKLSENGTEFSVKVSLLEIYNEELFDLLSPSPDVGERLQMFDDPRNKRGVIIKGLEEISVHNKDEVYHILERGAARRKTASTLMNAYSSRSHSVFSVTIHMKETTVDGEELVKIGKLNLVDLAGSENIGRSGAVDKRAREAGNINQSLLTLGRVITALVERTPHIPYRESKLTRILQDSLGGRTKTSIIATVSPASINLEETVSTLDYANRAKSIMNKPEVNQKLTAEEWKRRYEKEKEKNARLKGKVEKLEIELARWRAGETVKAEEQINMEDLMEASTPNLEVEAAQTAAAEAALAAQRTALANMSASVAVNEQARLATECERLYQQLDDKDEEINQQSQYAEQLKEQVMEQEELIANARREYETLQSEMARIQQENESAKEEVKEVLQALEELAVNYDQKSQEIDNKNKDIDALNEELQQKQSVFNAASTELQQLKDM
modifications: not checked
Question: What does the source list for B1?
Answer: end duration at plus ends under crowded conditions [1]: 2.61 s; mean residence time at dynamic plus ends [2]: 7.04 s; mean pause duration at plus ends [3]: 7.2 s
